The assay deals with HLA-DR (human). Description: cell-based or functional assay.

B1: HPIV3 Matrix Epitope Peptide 84 (…) (peptide)
peptide: GEFRYYPNIIAKGVG
On to B1, for which the IFN-gamma production, decrease in the presence of HLA-DR blocking antibodies is 32 to 80%.

The values above are taken from US20230036213A1.
